{
  "source": "paper PMC6846668",
  "about": "(Nucleic Acids Research, 2019)",
  "molecules": {"B1": {"name": "MsDpo4 (Mycolicibacterium smegmatis MC2 155) (protein)", "chain": "MTKWVLHVDLDQFLASVELRRRPDLRGQPVIVGGSGDPSEPRKVVTCASYEAREFGVHAGMPLRAAARRCPDATFLPSDPAAYDEASEQVMGLLRDLGHPLEVWGWDEAYLGADLPDESDPVEVAERIRTVVAAETGLSCSVGISDNKQRAKVATGFAKPAGIYVLTEANWMTVMGDRPPDALWGVGPKTTKKLAAMGITTVADLAVTDPSVLTTAFGPSTGLWLLLLAKGGGDTEVSSEPWVPRSRSHVVTFPQDLTERREMDSAVRDLALQTLAEIVEQGRIVTRVAVTVRTSTFYTRTKIRKLPAPSTDAGQIVDTALAVLDQFELDRPVRLLGVRLELAMDDVPRPAVTAGT"}, "B2": {"name": "MsDpo4 (Mycolicibacterium smegmatis MC2 155; L14Y) (protein)", "chain": "MTKWVLHVDLDQFYASVELRRRPDLRGQPVIVGGSGDPSEPRKVVTCASYEAREFGVHAGMPLRAAARRCPDATFLPSDPAAYDEASEQVMGLLRDLGHPLEVWGWDEAYLGADLPDESDPVEVAERIRTVVAAETGLSCSVGISDNKQRAKVATGFAKPAGIYVLTEANWMTVMGDRPPDALWGVGPKTTKKLAAMGITTVADLAVTDPSVLTTAFGPSTGLWLLLLAKGGGDTEVSSEPWVPRSRSHVVTFPQDLTERREMDSAVRDLALQTLAEIVEQGRIVTRVAVTVRTSTFYTRTKIRKLPAPSTDAGQIVDTALAVLDQFELDRPVRLLGVRLELAMDDVPRPAVTAGT"}},
  "key": {"[1]": {"target": "T1, PolIV (Escherichia coli, UniProt Q47155)", "T1 sequence (Q47155 1-351)": "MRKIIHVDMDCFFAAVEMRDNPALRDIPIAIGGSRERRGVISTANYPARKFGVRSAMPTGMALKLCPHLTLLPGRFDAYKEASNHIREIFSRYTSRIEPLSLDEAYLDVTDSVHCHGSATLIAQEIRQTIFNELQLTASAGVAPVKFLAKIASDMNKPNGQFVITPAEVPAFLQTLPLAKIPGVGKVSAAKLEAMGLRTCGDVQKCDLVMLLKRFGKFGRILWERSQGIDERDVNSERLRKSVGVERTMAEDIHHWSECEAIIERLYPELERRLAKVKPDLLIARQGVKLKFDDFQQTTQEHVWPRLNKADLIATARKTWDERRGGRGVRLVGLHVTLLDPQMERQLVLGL", "assay": "primer extension, gel", "type": "biochemical", "settings": "6FAM primer/template, 2.5 mM MnCl2, pH 8.0, 37°C"}, "[2]": {"substrate": "Nc1ccn([C@@H]2O[C@H](COP(=O)(O)OP(=O)(O)OP(=O)(O)O)[C@@H](O)[C@H]2O)c(=O)n1", "assay": "primer extension, Lineweaver-Burk", "type": "biochemical, Mycolicibacterium smegmatis", "settings": "6FAM 15mer primer/50mer template, 2.5 mM MnCl2, pH 8.0, 37°C"}},
  "data": [
    {"molecule": "Nc1ccn([C@H]2C[C@H](O)[C@@H](COP(=O)(O)OP(=O)(O)OP(=O)(O)O)O2)c(=O)n1", "note": "[dCTP]", "values": [
      {"measurement": "primer extension, gel", "setting": "[1]", "result": "mutations did not show a significant difference in the ability of PolIV to incorporate dCTP"}
    ]},
    {"molecule": "B1", "values": [
      {"measurement": "Km", "setting": "[2]", "result": "55.3 ± 4.0", "unit": "µM"},
      {"measurement": "kcat", "setting": "[2]", "result": "0.011 ± 0.00117", "unit": "s⁻¹"},
      {"measurement": "kcat/Km", "setting": "[2]", "result": "167 ± 16.7", "unit": "M⁻¹ s⁻¹"}
    ]},
    {"molecule": "B2", "values": [
      {"measurement": "Km", "setting": "[2]", "result": "59.54 ± 13.4", "unit": "µM"},
      {"measurement": "kcat", "setting": "[2]", "result": "0.00167 ± 0.000167", "unit": "s⁻¹"},
      {"measurement": "kcat/Km", "setting": "[2]", "result": "26.7 ± 5", "unit": "M⁻¹ s⁻¹"}
    ]}
  ]
}
